Measurements published in article PMC11488486.

Tests used:
[1] = target: UCHL1 R178Q (from pGEX-6p-1) (human) (UniProt P09936)
[2] = target: UCHL1, wild type (from pGEX-6p-1) (human) (UniProt P09936)

KM of UCHL1-catalyzed hydrolysis of Ub-Rho (Michaelis-Menten kinetics) [1]: 0.17 µM | KM of UCHL1-catalyzed hydrolysis of Ub-Rho (Michaelis-Menten kinetics) [2]: 0.03 µM
Substance: Ub-Rhodamine
